{"source": "patent US20050238685A1", "about": "(published 2005)", "key": {"bovine pancreas trypsin [1]": {"target": "T1, bovine pancreas trypsin (bovine, UniProt P00760 24-246)", "T1 construct": "Bought enzyme; also called 25 kD trypsin (bovine pancreas)", "T1 sequence (P00760 24-246)": "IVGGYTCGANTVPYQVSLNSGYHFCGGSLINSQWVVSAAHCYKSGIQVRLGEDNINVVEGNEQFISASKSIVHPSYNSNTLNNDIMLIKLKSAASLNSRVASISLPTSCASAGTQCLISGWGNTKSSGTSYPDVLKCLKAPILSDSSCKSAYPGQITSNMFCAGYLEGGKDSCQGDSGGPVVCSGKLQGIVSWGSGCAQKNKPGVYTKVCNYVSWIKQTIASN", "experiment": "enzyme on hydrophobin-coated sheets, washed; chromogenic assay"}, "bovine pancreas trypsin [2]": {"target": "T1, bovine pancreas trypsin", "experiment": "enzyme on SC3-coated TEFLON, rinsed; activity by spectrophotometry, constant after removal of the surface", "procedure": "The surface was first coated with SC3 hydrophobin by immersion in the protein aqueous solution (0.3 mg/mL) during approximately 30 minutes. The obtained modified surface was then immersed in an aqueous enzyme solution during approximately 30 minutes. After each step, the TEFLON™ surface was rinsed with an adequate buffer solution. […] The functionalized TEFLON® was stored at 4° C. in an Eppendorf tube containing a buffer solution."}, "[3]": {"target": "BSA (bovine serum albumin) (bovine, UniProt P02769 25-607)", "sequence (P02769 25-607 limits assumed)": "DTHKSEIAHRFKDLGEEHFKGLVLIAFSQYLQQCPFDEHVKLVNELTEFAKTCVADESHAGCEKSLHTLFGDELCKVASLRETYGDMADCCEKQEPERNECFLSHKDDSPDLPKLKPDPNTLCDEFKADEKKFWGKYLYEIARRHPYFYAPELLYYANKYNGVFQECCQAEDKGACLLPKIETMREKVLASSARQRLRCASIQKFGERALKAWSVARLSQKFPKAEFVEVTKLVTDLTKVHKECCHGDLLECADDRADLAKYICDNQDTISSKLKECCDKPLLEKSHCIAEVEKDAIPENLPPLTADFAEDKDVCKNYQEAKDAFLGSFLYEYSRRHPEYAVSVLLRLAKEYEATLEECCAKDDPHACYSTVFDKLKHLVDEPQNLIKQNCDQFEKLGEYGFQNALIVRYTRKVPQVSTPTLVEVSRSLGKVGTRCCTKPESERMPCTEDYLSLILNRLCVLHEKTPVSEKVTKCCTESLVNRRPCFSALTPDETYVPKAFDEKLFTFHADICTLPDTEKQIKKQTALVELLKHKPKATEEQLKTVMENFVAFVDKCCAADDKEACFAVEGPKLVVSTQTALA", "experiment": "protein on hydrophobin-coated TEFLON sheets, rinsed; TFA extraction and SDS-PAGE", "source_text": "BSA (bovine serum albumin) and fibronectin were immobilized on coated TEFLON™ sheets. […] The sheets were removed from the hydrophobin solution and were immediately washed with large amounts of water to remove any unbound hydrophobin. […] The presence of BSA or fibronectin on bare and coated TEFLON™ was detected extracting all protein with TFA, evaporating the TFA and loading the sample on SDS-PAGE and staining according to standard procedures."}}, "data": [{"binder": "SC4 hydrophobin of Schizophyllum commune (other) AGQACNSGPVQCCNETTTVANAQKQGLLGGLLGVVVGPITGLVGLNCSPISVVGVLTGNSCTAQTVCCDHVTQNGLVNVGCTPISL", "values": [{"measurement": "binding result", "setting": "bovine pancreas trypsin [1]", "value": "binds"}]}, {"binder": "SC3 hydrophobin of Schizophyllum commune (other, UniProt P16933 25-136, looked up, Used as a self-assembled film (alpha-helix state or beta-sheet state) coated on TEFLON, polyethylene, glass, microtiter wells or oil droplets; Natural SC3 is glycosylated (mannose) at its N-terminal side; also called hydrophobin SC3) GGHPGTTTPPVTTTVTVTTPPSTTTIAAGGTCTTGSLSCCNQVQSASSSPVTALLGLLGIVLSDLNVLVGISCSPLTVIGVGGSGCSAQTVCCENTQFNGLINIGCTPINIL", "values": [{"measurement": "binding result", "setting": "bovine pancreas trypsin [2]", "value": "binds"}, {"measurement": "binding result", "setting": "[3]", "value": "binds"}]}]}
